Values of other authors in doi:10.1101/2024.09.16.613101.

Tests used:
His57 = His57 (UniProt position 57, VVTAAHCGVTT); conditions: not stated (the structure used for prediction is described as the apoenzyme)
Cys46 = Cys46 (UniProt position 47, DFTFVCPTELG)
His27 = His27 (UniProt position 53, AGYQLHEDGET); test: NMR; conditions: native (folded) state, according to the title of ref 70; ligand state not stated
His40 = His40 (UniProt position 66, SNSYPHKYNNY); test: NMR; conditions: native (folded) state, according to the title of ref 70; ligand state not stated
Glu58 = Glu58 (UniProt position 84, SSPYYEWPILS); test: NMR; conditions: native (folded) state, according to the title of ref 70; ligand state not stated
Glu28 = Glu28 (UniProt position 54, GYQLHEDGETV); test: NMR; conditions: native (folded) state, according to the title of ref 70; ligand state not stated
His92 = His92 (UniProt position 118, AGVITHTGASG); test: NMR; conditions: native (folded) state, according to the title of ref 70; ligand state not stated

## chymotrypsin
His57
  pKa: 7.5

## peroxiredoxin AhpC (alkyl hydroperoxide reductase subunit C) (bacterial (species not stated in the article))
Cys46
  pKa: 5.94

## ribonuclease T1 (Aspergillus oryzae (not stated in the article; inferred))
His27
  pKa: 7.57
His40
  pKa: 7.44
Glu58
  pKa: 3.96
Glu28
  pKa: 5.61
His92
  pKa: 7.31
